Measurements reported in patent US20020052473.

T1: full-length pro-IL-1H4
T1 chain: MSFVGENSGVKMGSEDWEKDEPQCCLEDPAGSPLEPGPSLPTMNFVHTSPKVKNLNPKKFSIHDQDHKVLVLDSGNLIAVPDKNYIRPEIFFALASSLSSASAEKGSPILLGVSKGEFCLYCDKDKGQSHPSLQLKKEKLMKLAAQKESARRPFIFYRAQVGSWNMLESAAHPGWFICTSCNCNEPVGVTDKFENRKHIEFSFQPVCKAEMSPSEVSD


Biological target: T1, full-length pro-IL-1H4

Protein | cleavage of pro-IL-1H4 to mature IL-1H4 (SDS polyacrylamide gel) | cleavage of pro-IL-1H4
caspase 1 (protein) NPAMPTSSGSEGNVKLCSLEEAQRIWKQKSAEIYPIMDKSSRTRLALIICNEEFDSIPRRTGAEVDITGMTMLLQNLGYSVDVKKNLTASDMTTELEAFAHRPEHKTSDSTFLVFMSHGIREGICGKKHSEQVPDILQLNAIFNMLNTKNCPSLKDKPKVIIIQACRGDSPGVVWFKDSVGVSGNLSLPTTEEFEDDAIKKAHIEKDFIAFCSSTPDNVSWRHPTMGSVFIGRLIEHMQEYACSCDVEEIFRKVRFSFEQPDGRAQMPTTERVTLTRCFYLFPGH | Caspase 1 at a ratio of 1:50 to 1:5 (caspase:IL-1H4, weight/weight) completely cleaved pro-IL-1H4 to release the mature IL-1H4 | –
caspase 4 (protein) QISPNKKAHPNMEAGPPESGESTDALKLCPHEEFLRLCKERAEEIYPIKERNNRTRLALIICNTEFDHLPPRNGADFDITGMKELLEGLDYSVDVEENLTARDMESALRAFATRPEHKSSDSTFLVLMSHGILEGICGTVHDEKKPDVLLYDTIFQIFNNRNCLSLKDKPKVIIVQACRGANRGELWVRDSPASLEVASSQSSENLEEDAVYKTHVEKDFIAFCSSTPHNVSWRDSTMGSIFITQLITCFQKYSWCCHLEEVFRKVQQSFETPRAKAQMPTIERLSMTRYFYLFPGN | – | caspase 4 also cleaved pro-IL-1H4, although not as efficiently as caspase 1
